Experiment: soluble fraction after stress (log2 fold change); higher = more stays soluble; pooled small domains, quantitative proteomics
Conditions: stress: 50 degC
How it was run: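 Pooled custom libraries of small protein domains were each held under stress at 50°C. The read-out, high-throughput quantitative proteomics, tracked how much of each protein stayed soluble. This is reported as a base-two log fold change used to indicate aggregation propensity. Higher values mean more protein remains in solution.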

| Sequence | soluble fraction (log2) |
| --- | --- |
| HMQVITEPFQEKYREFINMSTVTQRLEERETLSFTAQTVEGRWLTIIIVPQGYDKTGKLSTVLVANR | 0.179 |
| HMATVHVDGIQYDFSSPEQAKEFAYKWAKKHNLTWEVHGETIHIK | -0.0845 |
| HMKNNYQYIVDQIKQLILDGELIVGDRLPSERDLSEMYQVSRASVREALKALETIGLLESRHGGGNYIVNH | -0.671 |
| HMVERQVTVPNLTGLGVADAQRLAQSMELDIEVLGEQESTDARPGAVLQQTPGAGTRAAAGSVVSVLV | 0.0752 |
| HMSTALTPLTTREREVLALMAEGLTNSGIAARLVLTDRTVETHVSRILHKLGLGETTTNEHRRVLAVLRYL | -1.5 |
| HMPASVEYIRLAAEQMTGQQVTIIEQPGNYAFILRIHLNDIYSLDLAALRARIDELKPAHLTYTVEQYD | -2.71 |
| HMIFEEDILKEFRGSLIFITHDRRFLDNIATRIIELDRGKLLSFPGNFSAYKKAKNEQLANEAVENA | -0.446 |
| HMSTRLIGEIGVVTKDLGAGLKENGSIQIGREEWPAETKDMEHIPMGTRVKVIHIEGTRLVVEA | -0.629 |
| HMLDPYNVLGVPRDAGMDEIKKAYRKLSRTYHPDANIDNPNKAQAEEKFKQIQEAYQQIVKERTE | -0.384 |
| HMEMKVIPFNQMTRDQFDQLDRFLGRLAAAQAMGSLRLTKAQQNYFLNQVKQLDLYRKRILN | -0.787 |
| HMAGTPAVVKWFNPTKGFGFVTPREAGSDALLHASVLAKQGKRWLQEGTVVEVVLEEGPKGLVVSEVLTIE | -0.457 |
| HMAFAVWVKLVAIGPNYAQLEIEQGTQRNVRTLRPGDDAPEGVRLLSLTPTHAEVQANGIARKLALGQGMA | -0.381 |
| HMPPSRFNELSMWFQEQLTEAGLKVDSGALKMLIEWLGQDQARLPSIIEVLVSTYGTKKKLTVDEIEPFL | 0.234 |
| HMTAPDDFIRAEVTASGKNGMAVAELSKRVRTRFKSFKVRELGYPHLAGYLADVEGVRVYKQGRENWVAK | -0.905 |
| HMSDYVLLYSGLNTSDTTFLAYSFQEKGIRYKMPNPDEIEVRVQDVDQARRIAAGAQLGGQVS | -0.424 |
| HMNVYEVKFGDTLDEIIKTYLFDIPVKKSILRQAVILANPHAFRRNNPHWMYSDRQLKLPELQDIRRAIF | -0.276 |
| HMDPIATLTPREREVLSLMAEGRSNGAIAAALVVGDGAVEKHVSNIFQKLELTPAEGDHRRVLAVLRWLE | -0.901 |
| HMKGVTVDGDNITVDGEKQTLISVNKNLDGDVVSYTYRTADGKLRTSRNVEVAQEINKQQLLKSIDAQ | 0.0821 |
| HMKIDLTPQEEKIYSVLETELTLDEIIMKTSIKAGEALAILMDLELKKLVASVAGGKYRRKA | 0.0271 |
| HMKPSISKIYALWGVLQRSGKIKSQDKAALDAFVRKYTGVDHVKWLDESQARKIIEILKQMIA | -0.458 |
| HMEALNIEQKKVEIINVLLEKGKGKGRLSYKEISDQIDTVELDKDQMDELYETLMTNGIEIV | 0.114 |
| HMNEMEFAQRLRQFRKAKNLTQQELADRLGVSNKSVSRWESGSYPDVGTLVALARALGVTVDELLDPKA | 0.0532 |
| HMYHIYPVADNDTPKLSADRLEYSLSNALLTNKLLNIDEIKKIYNDVILDKDEDGTLELSFKS | 0.0308 |
| HMKDANIQIGKRLREARLNMNLEKSEIADVLGVTVEHYRKLEAGVMGISVDKVLTLYHKYGIDPTYLITG | -1.19 |
| HMSDDSYLVALAEAYKNATSWDIRRQVLSIMTGVSSYKEISRYIPGLTQYRLSISNLHRLQYGRAAPVP | 0.0583 |
| HMDEEGDALDREYEDQIRLGDEAFDAEDWTSAQRAYTAALELRPDERYPKNRLRRLASLQEDV | 0.0779 |

| Sequence | soluble fraction (log2) |
| --- | --- |
| HMTSLYDILGIAKTADSQTIKTAFKKKALLYHPDKNNGNLKKEEIFKKISTAYQILSDPKSRANYDLSIA | -0.115 |
| HMADRLITLSEVASLLRVSRHTVQAWISPSSPNHRPEFAIMARHAGRRTVFIEAEVTAWLDQRRG | -1.95 |
| HMQQYLDAYDKALAFGIAMNKLPSYENLTLDDKEDVDKLKEIYDGMSNYEKTFVAKDFTDKLDRYVKRIE | -0.0367 |
| HMVGLKWYDTGNKKPPIGTEYKNTELSEALKGHDRKEFTWKELDVLGVNITDKEQYIVVGENYYTQV | -0.197 |
| HMTTQIPEEVQKRVNQFYEALDEEDYGEAKQILEELEKATAPDHPTLIQMRTRYEFDTMELR | 0.186 |
| HMAEVPSLIGKSLDAAKQAIIDAGFKVGSVSYDNSDSYGKGQVMWQQYEPSTKVKKGSSISIKVSKGS | 0.00591 |
| HMRPRQDRSEETRDRILDAVVELIAERGLAGVSHRAVADRAGVSLSATSYYFGSKAELERAALEEHYRR | -0.709 |
| HMKKPAERRKELVDAAAHLFAEKGYENTSVRDILDAVGGAPGMFYYYFKSKQDIYVAVMEDF | -3.54 |
| HMVARPVLQIGSTGADVTAIQARLGVSQTGYFGVLTAAAVTNFQRSNGIAASGKVGATTWAKLMQSA | -1.14 |
| HMFTNSTSSRQLTNSDDTLRLNISSQTRQMLPNGQPFGGSLSGKLLLVIYGATTRSIPAQTTPEKIVV | -0.134 |
| HMDSLSGQQGRVLEEINGFLQTGKVLLNGMEWSAVSKQPEDILPVDTEVVVVRVEGAHLVVKKA | 0.0592 |
| HMPFDWSAFDWKGWADEALAIIKTANQDQMNKWTEDNEKIIVQAETAAPDIYKTVGDEYDKKMESFN | 0.11 |
| HMKIRIIKTASNAKAVQIVSYKNNKRIVLQHIGSAHTDETLNDLKILAEEWIKDYNHQLSIF | -2.49 |
| HMEEPEELYRVKILIYNLLVRNGPGILYTRLRRADYPGEYGIYEEKNGYGKISATLSEWISLNTEYVQRLD | -2 |
| HMGPPAVGAKLQVLRQARKLSLDELSRRAGVSKSMLSQVERNLANPTVAVLWRLATALGVGLADFLSP | -1.39 |
| HMSSETTVPAVVGIKEDKARQLASEQGLRLRVKSREESADVEEGIIISQDPNSNTKVKKGDEIEVVVS | 0.254 |
| HMDSVSAVRTTHLNSYVLLLEKDGMAAATISRYIASMKGFFEYLFREHMIEEDPAFTLKPPKV | -0.0799 |
| HMIIIMKPNASEEAVRKVTHIIESKGLQVHLSKGSQVTIVGVVGDKTRLQGSNIEISEGVDKVVAVT | -0.0139 |
| HMYDFGVILQKLRKEKGFTQEQLARLIHKESSIISRYEKGLQNPTFETVKEFAAIFNVSMDYLAG | -1.25 |
| HMGAGKVVDGVTYDFVFDVDVADGQPPLRLPYNRGEDVYQAAERFILRNELPATYREQIVNFIVQNTPG | -0.131 |
| HMGTRPAYAADAPNPQKRFIYHRIVDQLRNKATGAPISYRAIAAETGVSVQTVINIKNRMNQMLSEK | -0.0598 |
| HMPRVLSSYTLTLRHQPTAEAVALVRTLLSPAGSVEVKEDGRTLVVRDELAALSRIVGALRSFDH | -0.404 |
| HMLVSPLDEIPGIGRNRKKTLLNHFGSAKTIEGASLEDLKKVDGISELIAKKIYNYFHLNKNF | -0.411 |
| HMKVEFTPAYLKKFKANKNAWKFYEAQTNTYKKQSAWYVISAKQEETRLRRLDLLIYDSENGIHIKPLRR | -2.6 |
| HMSTILERLIMLQEQSGMNQKQLQKELGLSNSAFSDWKKGKGRPSVEALVRFSEFFGVSMDWLAFG | -2.09 |
| HMSDDIPVHYRLDVNDAARALKLLTDNGFSAETAESGLNVYMTRLQSAEAARLLVENNIAVYGLTAV | 0.0267 |

| Sequence | soluble fraction (log2) |
| --- | --- |
| HMSSAYLTVRGIDIDVIYKDIKNLHIAVYPPFGRVRVAAPSHLDDDQVRLAVIQRLTWIKRQRERLRST | -1.41 |
| HMFVEEGSLKKITFDTYEFNITDNLKSLRVTYQGLLPNLFREGQGVVIEGILLEQNYIQANTVF | 0.22 |
| HMRNQIRAVITPVPNQERYTVEMTIDDDAGNLLTLQMAAPDRQQAAEFAQRFQKHPEALYHAVLSVLL | 0.0702 |
| HMIVEIVPSALHGERVDRIVAFILDVSRSVASGLVERGAVHVDGSVETSGKVRLVEGQEVSVDPSQVPG | -0.46 |
| HMDVNSRIRQFLKKMKITVQTFESSIGKTNGYIAHTKSPTAGVLAEIAKVYPDLNLDWLITGEGEMLKN | -0.468 |
| HMGLASEVKTEDVLNEEKYDFEPDLIGNNNEAIYQNKQTGSYVLFDRNQNKVTKVLSAGEVLNHSKYNE | -0.0697 |
| HMAVNSALVQRNWLIGYRIAEEELQGDNRAEYGASIIKKLAKELTAEYGKGYTKTNLYHFYSFYKT | -0.136 |
| HMEDIKHVVANNIKKYRKEERLTLQQLSYLTGVSKTMLNQIETEKSSPSITILWRISSGLKIPLSKLISSP | -1.61 |
| HMSLDAAAVASKLIKRLSKSPGRRFALDDLAVDVGLPHEQGRPLVRSALELLVRTQQAVEGPPNVFRLFF | -1.57 |
| HMALTLDEARTQGRVGETFYGYLVALKTDAETEKLVNDINAERKASYQQLAKQNNVSVDDIAKLAGQKLV | 0.0405 |
| HMDSIGTQIRKLREEAEMPLRKLSALLDIDQSTLSKIERDERRANTQMIEQIAKIFKVNKEQLLVA | -0.926 |
| HMAGPGAEVVDRLIAVLTGERPATAADQVLLSILKGLGIGGVVLPSERTGLGWSGLYQRVKEITDMN | -1.29 |
| HMISTVFYVDVKGEVHHPGVYQMKAENRVKDLIEAAGGFTPLADDQKLNLAQLLEDQMVIVVPKKGEEV | 0.278 |
| HMIKIEDILNVESVELSDSEYKKFLNGILINVKNLENGWAKVYSGNEFKGFGIVDKNLLKRKIVID | -0.426 |
| HMDPHEEELLRQLIRGDIAGYEVLFHKYYPTFFAFIKGMTKETVVAEDITQNIFMKVWLNRERLDAA | -0.0635 |
| HMGEEIRTWTDAQGRKIEARMSMLDGDQVLLELKDGRKIPYPLAKLSADDAHYARHFASASASD | 0.0254 |
| HMAEVRTLLVPIELAGMRFDQVLAELLPEFSRSRLAAWIKSGDALLDGHDAKPKGVVRGGEQIEIRLA | 0.0321 |
| HMEPERRHLEVPAEAEGERIDRFLASQLENLSRSRIQALIKAGYVRNRRGTIEDPGLRVKPGDAFVVDLPP | 0.44 |
| HMDTMINLIGLNLKKAKKELSNLGVNVKKVRYKKSSVYDEGVVIDQSIEAGRNIKNGDFITITVSSGKA | 0.428 |
| HMNEPITIALREAEEAANKILNEGVHSVELSPQNGYVRRLQHELIARYGLTSASRGSDPSRRVSVGAN | -0.212 |
| HMKDLSMPDVMGSSLNDAKKALTELGIMDITVRYVESGSSEGSIVGMEPPAGSKFAADGKVVLQVSSGS | 0.351 |
| HMKTKTIMSTGAREDLVKMINEYYYSKNYIITEDNRIYNTKTEKFMDDLSVKFYRGRWKVIRN | -0.813 |
| HMDLIEVLAQDTIKKIYNTYVAYKNKVDVFYVAFSGGKDSIVTLDLVQRTLPHNEFKVLFGDTGM | 0.133 |
| HMKIDLKQIEGVLDELAKVKGSLITILQKTQETYGYLPKEAIIYISERTGIAESEIMGVATFYTQFRL | -0.105 |
